From patent US20110135573A1, “METALLOPROTEINASE 9 AND METALLOPROTEINASE 2 BINDING PROTEINS” (DYAX CORP., priority 2009, published 2011)
Where a chain is given by its changes, count along the chain named.

B1: X0106-E04: germlined, optimized version of M0275-D03, IgG1 (antibody, V domains shown)
VH: EVQLLESGGGLVQPGGSLRLSCAASGFTFSQYDMWWVRQAPGKGLEWVSVIYPSGTTFYADSVKGRFTISRDNSKNTLYLQMNSLRAEDTAVYYCAKDRAYGDYVGWNGFDYWGQGTLVTVSS
VL: EIVLTQSPATLSLSPGERATLSCRASQSISSFLAWYQQKPGQAPRLLIYDASYRATGIPARFSGSGSGTDFTLTISSLEPEDFAVYYCQQRGNWPITFGQGTRLEIK
B2: X0106-A01: germlined, optimized version of M0256-D11, IgG1 (antibody, V domains shown)
VH: EVQLLESGGGLVQPGGSLRLSCAASGFTFSHYDMWWVRQAPGKGLEWVSVIYSSGGPTFYADSVKGRFTISRDNSKNTLYLQMNSLRAEDTAVYYCAKDRAYGDYVGWNGFDYWGQGTLVTVSS
VL: B1 VL
B3: X0106-F05: germlined, optimized version of M0307-F04, IgG1 (antibody, V domains shown)
VH: B2 VH with H31L, P57Y, F59G
VL: B1 VL
B4: X0106-C03: germlined, optimized version of M0274-G08, IgG1 (antibody, V domains shown)
VH: B2 VH with H31V, S53P, P57A, F59Y
VL: B1 VL
B5: X0106-B02: germlined, optimized version of M0276-F11, IgG1 (antibody, V domains shown)
VH: B2 VH with H31W
VL: B1 VL
B6: M0299-A12: affinity matured variant of M237-D02, sFab (antibody, V domains shown)
VH: B2 VH with D33P, V50Y, Y52S, P57G
VL: QDIQMTQSPATLSLSPGERATLSCRASQSISSFLAWYQQKPGQAPRLLIYDASYRATGIPARFSGSGSGTDFTLTISSLEPEDYAVYYCQQRGNWPITFGQGTRLEIK
B7: M0273-G07: affinity matured variant of M237-D02, sFab (antibody, V domains shown)
VH: B2 VH with S53P, F59Y
VL: B6 VL
B8: M0256-D11: affinity matured variant of M237-D02, sFab (antibody, V domains shown)
VH: B2 VH
VL: B6 VL
B9: M0276-F11: affinity matured variant of M237-D02, sFab (antibody, V domains shown)
VH: B2 VH with H31W
VL: B6 VL
B10: M0301-A09: affinity matured variant of M237-D02, sFab (antibody, V domains shown)
VH: B2 VH with H31Y, S53P, P57Y, F59A
VL: B6 VL
B11: M0301-D12: affinity matured variant of M237-D02, sFab (antibody, V domains shown)
VH: B2 VH with H31M, P57Y, F59S
VL: B6 VL
B12: M0272-H08: affinity matured variant of M237-D02, sFab (antibody, V domains shown)
VH: B2 VH with H31A, S53P, P57T
VL: B6 VL
B13: M0274-G08: affinity matured variant of M237-D02, sFab (antibody, V domains shown)
VH: B2 VH with H31V, S53P, P57A, F59Y
VL: B6 VL
B14: M0275-E12: affinity matured variant of M237-D02, sFab (antibody, V domains shown)
VH: B2 VH with P57F, F59G
VL: B6 VL
B15: M0273-A11: affinity matured variant of M237-D02, sFab (antibody, V domains shown)
VH: B2 VH with H31R, Y52S, S53P, P57A
VL: B6 VL
B16: M0307-F04: affinity matured variant of M237-D02, sFab (antibody, V domains shown)
VH: B2 VH with H31L, P57Y, F59G
VL: B6 VL
B17: M0275-D03: affinity matured variant of M237-D02, sFab (antibody, V domains shown)
VH: B1 VH
VL: B6 VL
B18: M0273-C10: affinity matured variant of M237-D02, sFab (antibody, V domains shown)
VH: B2 VH with H31F, D33P, V50Y, S53P, P57A
VL: B6 VL
B19: M0273-B10: affinity matured variant of M237-D02, sFab (antibody, V domains shown)
VH: B2 VH with H31K, D33A, W35I, V50W, Y52P, S53P, P57Y, F59S
VL: B6 VL

Each molecule was assayed against T1, mouse MMP-2 (Mus musculus, UniProt P33434) (assay: Enzyme inhibition assay (single point inhibition, IC50/Ki,app), substrate M-2350). Details: IgG; Table 12.
T1 construct: purchased R&D Systems 924-MP-010
Assay type: biochemical
Method: 343 unique sFabs from the anti-MMP-9/-2 M237-D02 affinity maturation campaign were discovered by phage display, produced in small scale (6 mL cultures in deep 24-well plates) and screened to select inhibitors with sub-nanomolar potency against the human enzymes and at least single-digit nanomolar potency toward the mouse orthologues. […] Isolates which appeared potent against both human and mouse MMP-2 were then subjected to IC50 analysis against hMMP-9. Sub-nanomolar inhibitors of hMMP-9 were further tested by IC50 analysis against mMMP-9 and h/m MMP-2, if sufficient small-scale sFab material was available. Thirteen potential h/m MMP-9/-2 sFab inhibitors were then produced in medium scale (250 mL cultures in flasks) and retested for h/m MMP-9 and h/m MMP-2 inhibition. Five potential lead candidates were reformatted as IgGs and retested in enzyme inhibition assays.
Human MMP-9 (Biomol #SE-244), mouse MMP-9 (R&D Systems #909-MM-010), human MMP-2 (Biomol #SE-237) and mouse MMP-2 (R&D Systems #924-MP-010) were tested at final concentrations of 1 nM, 0.25-0.4 nM, 2.5 nM and 0.2 nM, respectively. Target enzymes were incubated with inhibitor for two hours at 30° C. in reaction buffer (50 mM Tris-HCl pH 7.5, 150 mM NaCl, 5 mM CaCl2, 0.05% Brij-35) in a total volume of 90 μL using a white 96 well plate (Costar). Reactions contained 5 μL of small-scale sFab stock solution (average concentration of 500 nM) for single point inhibition analysis or a concentration series of sFab/IgG for IC50 Ki,app determinations. Commercially available anti-MMP-9 antibodies (Millipore mAb 13415 and R&D Systems polyclonal IgG #AB911) were tested by IC50 analyses using 100 nM and 500 nM as the highest inhibitor concentrations, respectively. An anti-MMP-2 antibody (R&D Systems polyclonal IgG #AF902) was similarly tested with 200 nM as the highest inhibitor concentration. Reactions were initiated by the addition of 10 μL of a 10× concentrated stock of substrate, Mca-Lys-Pro-Leu-Gly-Leu-Dap(Dnp)-Ala-Arg-NH2, (Bachem M-2350), at final concentration of 10 μM and monitored at 30° C. in a Molecular Devices' Gemini fluorescence plate reader. The excitation and emission wavelengths were set at 328 nm and 393 nm, respectively. Kinetic data were acquired by the increase in fluorescence, and initial rates for each condition were plotted against the total inhibitor concentration. Reactions were performed in duplicates and all data replicates were plotted in a single graph and fit to the following equation^1:
Where A=initial rate observed at each inhibitor concentration; Ao=initial rate observed in the absence of inhibitor; Ainh=initial rate observed for the enzyme inhibitor complex; Inh=concentration of inhibitor; E=total enzyme concentration (treated as a floated parameter); and Ki,app=apparent equilibrium inhibition constant.

T1 sequence (P33434 110-662): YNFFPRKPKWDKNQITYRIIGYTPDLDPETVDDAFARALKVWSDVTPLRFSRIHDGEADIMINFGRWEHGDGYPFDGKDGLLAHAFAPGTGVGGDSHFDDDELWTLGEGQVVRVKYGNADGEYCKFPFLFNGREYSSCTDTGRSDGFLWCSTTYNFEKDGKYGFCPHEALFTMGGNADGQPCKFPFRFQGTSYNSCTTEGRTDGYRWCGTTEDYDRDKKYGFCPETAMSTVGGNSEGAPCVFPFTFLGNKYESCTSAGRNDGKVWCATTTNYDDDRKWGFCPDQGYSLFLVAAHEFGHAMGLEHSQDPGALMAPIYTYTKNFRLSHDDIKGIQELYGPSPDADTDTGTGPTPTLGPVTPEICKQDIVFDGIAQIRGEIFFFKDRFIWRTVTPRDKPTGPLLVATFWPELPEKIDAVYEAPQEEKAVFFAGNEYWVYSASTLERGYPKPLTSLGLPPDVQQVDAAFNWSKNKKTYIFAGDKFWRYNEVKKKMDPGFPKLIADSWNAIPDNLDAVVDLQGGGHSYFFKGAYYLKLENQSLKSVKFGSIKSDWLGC

Molecule | Ki
B1 | 3.9 nM
B2 | 4.7 nM
B3 | 3 nM
B4 | 3.2 nM
B5 | 4.2 nM

Same assay, conditions: medium-scale sFab; Table 10

Molecule | Ki
B6 | 30 nM
B7 | 22 nM
B8 | 4.2 nM
B9 | 3.7 nM
B10 | 21 nM
B11 | 25 nM
B12 | 46 nM
B13 | 2.7 nM
B14 | 15 nM
B15 | 32 nM
B16 | 2.2 nM
B17 | 5.4 nM
B18 | 18 nM
B19 | 59 nM

Same assay, conditions: small-scale sFab; Table 10

Molecule | Ki
B6 | 30 nM
B7 | 22 nM
B8 | 4.2 nM
B9 | 3.7 nM
B10 | 21 nM
B11 | 25 nM
B12 | 46 nM
B13 | 2.7 nM
B14 | 15 nM
B15 | 32 nM
B16 | 2.2 nM
B17 | 5.4 nM
B18 | 18 nM
B19 | 59 nM
